B1: GLS3000 V94A one-arm antibody (antibody, human IgG1, kappa, L234A L235A, N297A, name in Kabat numbering)
light: DIVMTQSPLSLPVTPGEPASISCRSSQSLVHSNRNTYLHWYQQKPGQAPRLLIYKVSNRFSGVPDRFSGSGSGTDFTLKISRVEAEDVGVYYCGQGTQAPYTFGQGTKLEIKRTVAAPSVFIFPPSDEQLKSGTASVVCLLNNFYPREAKVQWKVDNALQSGNSQESVTEQDSKDSTYSLSSTLTLSKADYEKHKVYACEVTHQGLSSPVTKSFNRGEC
heavy: QVQLVESGGGVVQPGRSLRLSCAASGFTFSNAWMHWVRQAPGKGLEWVAQIKAKSNNYATYYAESVKGRFTISRDDSKNSLYLQMNSLKTEDTAVYYCRYVHYGAYYGVDAWGQGTTVTVSSASTKGPSVFPLAPSSKSTSGGTAALGCLVKDYFPEPVTVSWNSGALTSGVHTFPAVLQSSGLYSLSSVVTVPSSSLGTQTYICNVNHKPSNTKVDKKVEPKSCDKTHTCPPCPAPEAAGGPSVFLFPPKPKDTLMISRTPEVTCVVVDVSHEDPEVKFNWYVDGVEVHNAKTKPREEQYASTYRVVSVLTVLHQDWLNGKEYKCKVSNKALPAPIEKTISKAKGQPREPQVYTLPPSRCELTKNQVSLSCAVKGFYPSDIAVEWESNGQPENNYKTTPPVLDSDGSFFLVSKLTVDKSRWQQGNVFSCSVMHEALHNHYTQKSLSLSPDYKDDDDK
chain: EPKSSDKTHTCPPCPAPELLGGPSVFLFPPKPKDTLMISRTPEVTCVVVDVSHEDPEVKFNWYVDGVEVHNAKTKPREEQYNSTYRVVSVLTVLHQDWLNGKEYKCKVSNKALPAPIEKTISKAKGQPREPQVCTLPPSRDELTKNQVSLWCLVKGFYPSDIAVEWESNGQPENNYKTTPPVLDSDGSFFLYSKLTVDKSRWQQGNVFSCSVMHEALHNRYTQKSLSLSP
B2: GLS3000 F55E one-arm antibody (antibody, human IgG1, kappa, L234A L235A, N297A, name in Kabat numbering)
light: DIVMTQSPLSLPVTPGEPASISCRSSQSLVHSNRNTYLHWYQQKPGQAPRLLIYKVSNRESGVPDRFSGSGSGTDFTLKISRVEAEDVGVYYCGQGTQVPYTFGQGTKLEIKRTVAAPSVFIFPPSDEQLKSGTASVVCLLNNFYPREAKVQWKVDNALQSGNSQESVTEQDSKDSTYSLSSTLTLSKADYEKHKVYACEVTHQGLSSPVTKSFNRGEC
heavy: QVQLVESGGGVVQPGRSLRLSCAASGFTFSNAWMHWVRQAPGKGLEWVAQIKAKSNNYATYYAESVKGRFTISRDDSKNSLYLQMNSLKTEDTAVYYCRYVHYGAYYGVDAWGQGTTVTVSSASTKGPSVFPLAPSSKSTSGGTAALGCLVKDYFPEPVTVSWNSGALTSGVHTFPAVLQSSGLYSLSSVVTVPSSSLGTQTYICNVNHKPSNTKVDKKVEPKSCDKTHTCPPCPAPEAAGGPSVFLFPPKPKDTLMISRTPEVTCVVVDVSHEDPEVKFNWYVDGVEVHNAKTKPREEQYASTYRVVSVLTVLHQDWLNGKEYKCKVSNKALPAPIEKTISKAKGQPREPQVYTLPPSRCELTKNQVSLSCAVKGFYPSDIAVEWESNGQPENNYKTTPPVLDSDGSFFLVSKLTVDKSRWQQGNVFSCSVMHEALHNHYTQKSLSLSPDYKDDDDK
chain: EPKSSDKTHTCPPCPAPELLGGPSVFLFPPKPKDTLMISRTPEVTCVVVDVSHEDPEVKFNWYVDGVEVHNAKTKPREEQYNSTYRVVSVLTVLHQDWLNGKEYKCKVSNKALPAPIEKTISKAKGQPREPQVCTLPPSRDELTKNQVSLWCLVKGFYPSDIAVEWESNGQPENNYKTTPPVLDSDGSFFLYSKLTVDKSRWQQGNVFSCSVMHEALHNRYTQKSLSLSP
B3: GLS3000 F55G one-arm antibody (antibody, human IgG1, kappa, L234A L235A, N297A, name in Kabat numbering)
light: DIVMTQSPLSLPVTPGEPASISCRSSQSLVHSNRNTYLHWYQQKPGQAPRLLIYKVSNRGSGVPDRFSGSGSGTDFTLKISRVEAEDVGVYYCGQGTQVPYTFGQGTKLEIKRTVAAPSVFIFPPSDEQLKSGTASVVCLLNNFYPREAKVQWKVDNALQSGNSQESVTEQDSKDSTYSLSSTLTLSKADYEKHKVYACEVTHQGLSSPVTKSFNRGEC
heavy: QVQLVESGGGVVQPGRSLRLSCAASGFTFSNAWMHWVRQAPGKGLEWVAQIKAKSNNYATYYAESVKGRFTISRDDSKNSLYLQMNSLKTEDTAVYYCRYVHYGAYYGVDAWGQGTTVTVSSASTKGPSVFPLAPSSKSTSGGTAALGCLVKDYFPEPVTVSWNSGALTSGVHTFPAVLQSSGLYSLSSVVTVPSSSLGTQTYICNVNHKPSNTKVDKKVEPKSCDKTHTCPPCPAPEAAGGPSVFLFPPKPKDTLMISRTPEVTCVVVDVSHEDPEVKFNWYVDGVEVHNAKTKPREEQYASTYRVVSVLTVLHQDWLNGKEYKCKVSNKALPAPIEKTISKAKGQPREPQVYTLPPSRCELTKNQVSLSCAVKGFYPSDIAVEWESNGQPENNYKTTPPVLDSDGSFFLVSKLTVDKSRWQQGNVFSCSVMHEALHNHYTQKSLSLSPDYKDDDDK
chain: EPKSSDKTHTCPPCPAPELLGGPSVFLFPPKPKDTLMISRTPEVTCVVVDVSHEDPEVKFNWYVDGVEVHNAKTKPREEQYNSTYRVVSVLTVLHQDWLNGKEYKCKVSNKALPAPIEKTISKAKGQPREPQVCTLPPSRDELTKNQVSLWCLVKGFYPSDIAVEWESNGQPENNYKTTPPVLDSDGSFFLYSKLTVDKSRWQQGNVFSCSVMHEALHNRYTQKSLSLSP
B4: GLS3000 F55H one-arm antibody (antibody, human IgG1, kappa, L234A L235A, N297A, name in Kabat numbering)
light: DIVMTQSPLSLPVTPGEPASISCRSSQSLVHSNRNTYLHWYQQKPGQAPRLLIYKVSNRHSGVPDRFSGSGSGTDFTLKISRVEAEDVGVYYCGQGTQVPYTFGQGTKLEIKRTVAAPSVFIFPPSDEQLKSGTASVVCLLNNFYPREAKVQWKVDNALQSGNSQESVTEQDSKDSTYSLSSTLTLSKADYEKHKVYACEVTHQGLSSPVTKSFNRGEC
heavy: QVQLVESGGGVVQPGRSLRLSCAASGFTFSNAWMHWVRQAPGKGLEWVAQIKAKSNNYATYYAESVKGRFTISRDDSKNSLYLQMNSLKTEDTAVYYCRYVHYGAYYGVDAWGQGTTVTVSSASTKGPSVFPLAPSSKSTSGGTAALGCLVKDYFPEPVTVSWNSGALTSGVHTFPAVLQSSGLYSLSSVVTVPSSSLGTQTYICNVNHKPSNTKVDKKVEPKSCDKTHTCPPCPAPEAAGGPSVFLFPPKPKDTLMISRTPEVTCVVVDVSHEDPEVKFNWYVDGVEVHNAKTKPREEQYASTYRVVSVLTVLHQDWLNGKEYKCKVSNKALPAPIEKTISKAKGQPREPQVYTLPPSRCELTKNQVSLSCAVKGFYPSDIAVEWESNGQPENNYKTTPPVLDSDGSFFLVSKLTVDKSRWQQGNVFSCSVMHEALHNHYTQKSLSLSPDYKDDDDK
chain: EPKSSDKTHTCPPCPAPELLGGPSVFLFPPKPKDTLMISRTPEVTCVVVDVSHEDPEVKFNWYVDGVEVHNAKTKPREEQYNSTYRVVSVLTVLHQDWLNGKEYKCKVSNKALPAPIEKTISKAKGQPREPQVCTLPPSRDELTKNQVSLWCLVKGFYPSDIAVEWESNGQPENNYKTTPPVLDSDGSFFLYSKLTVDKSRWQQGNVFSCSVMHEALHNRYTQKSLSLSP
B5: GLS3000 F55I one-arm antibody (antibody, human IgG1, kappa, L234A L235A, N297A, name in Kabat numbering)
light: DIVMTQSPLSLPVTPGEPASISCRSSQSLVHSNRNTYLHWYQQKPGQAPRLLIYKVSNRISGVPDRFSGSGSGTDFTLKISRVEAEDVGVYYCGQGTQVPYTFGQGTKLEIKRTVAAPSVFIFPPSDEQLKSGTASVVCLLNNFYPREAKVQWKVDNALQSGNSQESVTEQDSKDSTYSLSSTLTLSKADYEKHKVYACEVTHQGLSSPVTKSFNRGEC
heavy: QVQLVESGGGVVQPGRSLRLSCAASGFTFSNAWMHWVRQAPGKGLEWVAQIKAKSNNYATYYAESVKGRFTISRDDSKNSLYLQMNSLKTEDTAVYYCRYVHYGAYYGVDAWGQGTTVTVSSASTKGPSVFPLAPSSKSTSGGTAALGCLVKDYFPEPVTVSWNSGALTSGVHTFPAVLQSSGLYSLSSVVTVPSSSLGTQTYICNVNHKPSNTKVDKKVEPKSCDKTHTCPPCPAPEAAGGPSVFLFPPKPKDTLMISRTPEVTCVVVDVSHEDPEVKFNWYVDGVEVHNAKTKPREEQYASTYRVVSVLTVLHQDWLNGKEYKCKVSNKALPAPIEKTISKAKGQPREPQVYTLPPSRCELTKNQVSLSCAVKGFYPSDIAVEWESNGQPENNYKTTPPVLDSDGSFFLVSKLTVDKSRWQQGNVFSCSVMHEALHNHYTQKSLSLSPDYKDDDDK
chain: EPKSSDKTHTCPPCPAPELLGGPSVFLFPPKPKDTLMISRTPEVTCVVVDVSHEDPEVKFNWYVDGVEVHNAKTKPREEQYNSTYRVVSVLTVLHQDWLNGKEYKCKVSNKALPAPIEKTISKAKGQPREPQVCTLPPSRDELTKNQVSLWCLVKGFYPSDIAVEWESNGQPENNYKTTPPVLDSDGSFFLYSKLTVDKSRWQQGNVFSCSVMHEALHNRYTQKSLSLSP
B6: GLS3000 F55K one-arm antibody (antibody, human IgG1, kappa, L234A L235A, N297A, name in Kabat numbering)
light: DIVMTQSPLSLPVTPGEPASISCRSSQSLVHSNRNTYLHWYQQKPGQAPRLLIYKVSNRKSGVPDRFSGSGSGTDFTLKISRVEAEDVGVYYCGQGTQVPYTFGQGTKLEIKRTVAAPSVFIFPPSDEQLKSGTASVVCLLNNFYPREAKVQWKVDNALQSGNSQESVTEQDSKDSTYSLSSTLTLSKADYEKHKVYACEVTHQGLSSPVTKSFNRGEC
heavy: QVQLVESGGGVVQPGRSLRLSCAASGFTFSNAWMHWVRQAPGKGLEWVAQIKAKSNNYATYYAESVKGRFTISRDDSKNSLYLQMNSLKTEDTAVYYCRYVHYGAYYGVDAWGQGTTVTVSSASTKGPSVFPLAPSSKSTSGGTAALGCLVKDYFPEPVTVSWNSGALTSGVHTFPAVLQSSGLYSLSSVVTVPSSSLGTQTYICNVNHKPSNTKVDKKVEPKSCDKTHTCPPCPAPEAAGGPSVFLFPPKPKDTLMISRTPEVTCVVVDVSHEDPEVKFNWYVDGVEVHNAKTKPREEQYASTYRVVSVLTVLHQDWLNGKEYKCKVSNKALPAPIEKTISKAKGQPREPQVYTLPPSRCELTKNQVSLSCAVKGFYPSDIAVEWESNGQPENNYKTTPPVLDSDGSFFLVSKLTVDKSRWQQGNVFSCSVMHEALHNHYTQKSLSLSPDYKDDDDK
chain: EPKSSDKTHTCPPCPAPELLGGPSVFLFPPKPKDTLMISRTPEVTCVVVDVSHEDPEVKFNWYVDGVEVHNAKTKPREEQYNSTYRVVSVLTVLHQDWLNGKEYKCKVSNKALPAPIEKTISKAKGQPREPQVCTLPPSRDELTKNQVSLWCLVKGFYPSDIAVEWESNGQPENNYKTTPPVLDSDGSFFLYSKLTVDKSRWQQGNVFSCSVMHEALHNRYTQKSLSLSP

The binders below were run against T1, CD3 epsilon homodimer protein (UniProt P07766 23-126) (assay: SPR Biacore T200, CD3e homodimer on chip, antibody analyte;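 further: CD3 epsilon homodimer amine-coupled on CM4 sensor chip, antibodies injected as analyte at 25 °C in HBS-EP+, ratio ≥0.8 taken as binding retained versus unaltered parent antibody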).
T1 construct: Construct of the homodimer is not described; also called CD3 (CD3 epsilon)
T1 sequence (P07766 23-126): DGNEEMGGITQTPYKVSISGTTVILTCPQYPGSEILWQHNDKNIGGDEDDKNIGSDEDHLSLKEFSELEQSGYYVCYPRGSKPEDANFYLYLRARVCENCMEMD
In the case of B1, the “ratio of amounts bound (altered form/GLS3000)” value is reported as 1.05. With B2 the “ratio of amounts bound (altered form/GLS3000)” value was 0.72. With B3 the “ratio of amounts bound (altered form/GLS3000)” value was 1.31. B4 was tested, and the “ratio of amounts bound (altered form/GLS3000)” value was 0.94. B5 was tested, and the “ratio of amounts bound (altered form/GLS3000)” value was 0.82. For B6, the “ratio of amounts bound (altered form/GLS3000)” value was 1.33.

Source: US20240270846A1 (published 2024)
